From the domain aggregation screens of Martell et al. (2025) come the findings set out here.

A short description of this data set: soluble fraction after stress (log2 fold change); higher = more stays soluble; pooled small domains, quantitative proteomics. To be noted: stress: 50 degC. The method in brief: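 The stress applied to every library was 50°C. These custom libraries of small protein domains were pooled and measured at high throughput with quantitative proteomics as the read-out. Aggregation propensity is expressed as the base-two logarithm of the fold change in how much of each protein remains soluble. The higher the value, the more of that protein stays in solution.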

Turning to “HMGFDTVVEKVLGLITSRPMTSRDIQMTLGRSREHTSRLMNRLYKEGLVDRNTSSKPFSYIITEKGREKI”, the “soluble fraction (log2)” value was -0.0114.
As for “HMRMLLKELLIQYEVKNDKSHVEVAKEVGVSLSTYYRWLNGESLHLKKRTIDRLSEVLHYDINQVVEES”, the figure is -2.35; as for “HMGTTTPPATRKGKVTSSFLNVRSGPSTANAKVAELKQNAVVTIYETSSNGWHRIGVNQWVIGTNIQE”, -0.441; as for “HMKVKEYKLVDWISTFTKNEGYGISQKAAMLLAEFLGDDLSRIANEIEKLKLLVEKGTTINDVHIEENI”, -0.797.
Consider “HMSAQDLIVKTDATQVEARVLEISPEQIRYKRFSNPDGPTYVLPVDAVDYIRYANGETDSFR”, for which the “soluble fraction (log2)” value is -0.0039.
For the sequence “HMTKTKFLSKDMILSAMSRTKSNRAAARYLSVSFVHYKKYAREYKDETSGVSLWEKHKNQSGTGIPK”, the “soluble fraction (log2)” value was -1.92.
Next, “HMASANMPDVLGLDAETAKQVLAAKGFTKVEIYPMESSEPANRVVRQSEDRDTMVALTKEILLGVSNGS”: 0.186; “HMARTDVKLREVAQELLRMGLLEESLRPHLYRTALASMERLNATLEPLDLIARADEIRGLVFLAVRH”: -2.44.
Next, “HMGVEVEVPNVKGKLVADAEYELGLAQLTPVRTDSAYNRNLPPGTVLEQLPASGSHVKEGREIYLTINST”: 0.264; “HMTAQGDSSDAVQRAITEILRHEDPSHPFSDQQLVIKLRTMDISVSRRTVTKYRKLLHIPSSTHRK”: -2.74.
Take “HMTLPQEPTVLPRPLRVGDTVHIRTLDKDAEVLALPDARGMVAVRAGIINTKVKLTDLTLVEEK”: the “soluble fraction (log2)” value came out at 0.179.
Next, “HMKVSVPDIMDNSSLRQAEAKLRALGFRVTEPEYISGEKDWVYSVTYKGRTLNAGDKVPHEALLTLHVGNG”: -0.0697; “HMDYADISYKIFMNHIKNGQVERVELSGDPRIMGKLKDGTYFVTDNPRTENFKEFLLLNNVQVIETN”: 0.43; “HMDALIWYVSRGQQKFGPFNYFGVLKALQDKSVFEFDYVWKEGTENWVRLAEHELFSQEKVRELLA”: -0.203.
“HMQRDERYVYHTVLAGETIYSLSRKFNVTMDELLESNPALRSGVLTTGSEIRVLKAQMAQNFD”: the “soluble fraction (log2)” value was -0.376.
Next, “HMNPTTQIQYNLPKSEFVSIYIYDLIGNRVKSLINNYQDAGYKSVYWDAMNDLGQPVSAGMYIY”: -0.134; “HMTGIQLNDRERAILQHLSDGLTTKAIAERIFLREDTVKWYRKNLLARFEQPIVAALVKWAVLEGLV”: 0.141.
Regarding “HMTTQTTKYVNTTAGLNVRTGPSTSYAKIVTLSYGQSVNVLSTSNGWSKINYNGSTGYVSSQYLQSTKPS”, the “soluble fraction (log2)” value was -0.619.
Turning to “HMDSKYLRIFSTLIDEMEKMSPGEQLQSERELSQRFQVSPMTVRRALHKLSTEGYTSAIPGKGTFVRK”, the “soluble fraction (log2)” value was -0.307.
Next, “HMAVQPMDQVKAWLAEDNPADIKLLVPVLQKLDLLDYEQVRGEVADRAGVRKSLLDEAVKGN”: 0.0999; “HMDAAANTLRILKALSESPMSADRLAELLMEEGSGRNPRTIRRYIRALREAGFGVEHREGRYVL”: -0.381.
For the sequence “HMSTMLPFVMRELVELVMKKKALPLGDALYYIYSSKLYKSLLDKSTKLWYSSTLSLYETLEKEKTEEKRRY”, the “soluble fraction (log2)” value is -1.79.
“HMSFNGTILSNYQKTYPNLAKFTYDQANDALVYEGNFIKLNGYGLSRIDPVFFNMNPDEIFIFIKNG”: the “soluble fraction (log2)” value is -3.51.
Take “HMKLTKPQEVFIQELLKGSSQYEAYLKAYPSKKTWKRNSIDTEASKLFKNAKIKQRYEELLYNIREE”: the “soluble fraction (log2)” value was -0.167.
As to “HMYYDDEELDDYRGKASDAYTAAEVEQFEEVLTTMRPEEVHGWLRSLQLRGVALPDALKDEAYMIVSEQAE”, the “soluble fraction (log2)” value was -0.252.
Next, “HMDNEYDKVYQAALSKLEGYPRSSITTAVIKDVVAQTIKYFEIKNFGYEDTIINQLQSAFTVKSSS”: -0.0856; “HMNVDLLEARIPIQSHGMRLDQVVAELFPDYSRNRLAAWIKEGRLTVDGKTMKPRDRALASAHVVLEVV”: -0.18.
Next, “HMVSVLGRRIKELRLQNSMTQMQLAKKLGYKGNSLVAGWELGKNYPSVSSIKRLSEIFDTDLMKYVG”: -1.65; “HMTDKLIAYSVDGILNVITSEAQSVKVYAIDGRLVRILQLGEGRNEVSGLAKGIYIVDNRKVAV”: -1.71.
“HMNMLGSNIKYLRNRHKLSQQELSEKLGVPRSSLSDYERGHTQVGLDSLIKLADIFDVKIDDLLRSNLSHR”: the “soluble fraction (log2)” value is -0.0552.
As to “HMQPQIDFEIDVEVRASSLRIVAAPNSDVLVATVGRGEHVVQLTYPKDGWVMIRTADDRVGFVPESLLL”, the “soluble fraction (log2)” value was -0.255.
Regarding “HMGGAYATVKLSSSSSQLNVRASASTASRVVARLSHGFRVEVLGVSGDWVKIRALGVEGYVARAYLALEGE”, the “soluble fraction (log2)” value is -0.374.
Turning to “HMESRDRVRQASAAGYRFMSTMAGHEPGFEEASRALFAGDQTAFEARITAWPVDVQTHLKKILAEAFTT”, the “soluble fraction (log2)” value was -0.734.
Next, “HMLTRQRKQLLEYLSKHTDEQMTARQIADALTAESISISAVYRNLSALEEEGILKRSIRENTREVYYQYIA”: -0.973; “HMENTIESLLKAKGFNDIIVTVSDKQVDVVVSDKEIADNKRAQIEDVIKRKTGLEASAITITPA”: 0.0688.
As for “HMRQKTTFFATESFELPNGEKVEEGQIFRLNDGAFNIAEQQGITRFLTSEANYGRMIAANAEVEKAKLDA”, the figure is 0.268.
Take “HMEAKQMDAWIVSEAKRQGGKIEPAAAYELSRHTATDTSIASQEIAKLLMYVDFKRPVTREDVVELVSA”: the “soluble fraction (log2)” value was determined as 0.176.
As for “HMSTTHLTASVIKDKVNVRSEADSQNGAIIDKARTGERLLVTDYGNKWTGIVLPDGKRGYIMTEYLQF”, the figure is 0.0443.
As for “HMDPKISWESDEKLSANIGHYENSIKPLMGNKYLIELSQLKDKIESHPWVARATIKRIFWNKIHIQLESHD”, the figure is 0.00717.
Next, “HMELADLPSAQIREILAYVYRAPLEKRRDPSIHWLLIAAHKLTLPLLDRLDPADARALGERYGADYP”: 0.132; “HMEYQSLVLDFLEQGDFNAEKLKDYQRAFAKQNGMQTLPSKSQILQAYFQLVEEKKINKNSDFELLLRKR”: 0.0447; “HMISAQEQALRNLKLSNGMTWKALAKALGITERSILSYVAAPGTKGYREMPAEVWHKLENISGH”: 0.165.
On to “HMRKIGDVLRLHAGGLSKRRIAVSLNIGRTAVGDYISRARRAGLGWPLPEDLSEEALERLLFPPP”, for which the “soluble fraction (log2)” value is -2.59.
Next, “HMSTEAFLGTEGEVVLPLLPDGLGKIRLHVADQDVELPARTGGEPIQIRERVVVVRFRDGIAEVEPAP”: 0.191.
Regarding “HMDAKQLQSLKNNNEQLAGFIVRLTNFYEGLSPDIDAELSKLRSHLSGKVDYTLATVSINKINQLFMLEP”, the “soluble fraction (log2)” value is -2.6.
As to “HMSASNSIDFANRMIYNKNQVAVFNFGKHMGRPVLEVLKSDPSYYDWMMKGDFPMDTKRKLTEIKLQGF”, the “soluble fraction (log2)” value was -0.755.
With “HMAATNVKVPDLKGWDYNNAVGKYGDKLSFVKKSIYSDSVSKGIIIYNARVGETVAQGTTIEVTVSLGPKG”, the “soluble fraction (log2)” value was -0.205.
Regarding “HMVNKQERTYTILRDRIHSGSFAPLERLNIDALARELGVSPIPVREALRRLEAEGWVRFTPNVGAVVSP”, the “soluble fraction (log2)” value is -0.165.
In the case of “HMGNHMSFKMWGEQLQEAFRALETYDTQKAKTILNELVRFPIDSDITKALKGIISNIDDMMA”, the “soluble fraction (log2)” value is -0.535.
Consider “HMDTIVHFLSDGRRITVRIKRNARKNIILRPMAADAVSATIPPWLGRRQLSAWLSEREDLLLSVLSRAA”, for which the “soluble fraction (log2)” value was -2.14.
